# Test results reported in paper PMC6503762.
# Biological target: MSBI1.176 Rep WH1 domain (residues 1-135) (MSBI1.176 (bovine meat and milk factor DNA isolated from a brain sample of a human patient with multiple sclerosis))
# Assay: crystal structure; hanging-drop vapor diffusion at 18°C, 1:1 protein (5 mg/ml in 25 mM Tris-HCl pH 7.6, 300 mM NaCl) and 0.2 M magnesium acetate, 20% PEG 3350; S-SAD phasing; 1.53 Å; one dimer in the asymmetric unit
substance,measurement,value
MSBI1.176 Rep WH1 domain (residues 1-135) (domain or fragment),stoichiometry N,2
